{
  "source": "paper PMC10775985",
  "about": "“Malaria parasite centrins can assemble by Ca^2+-inducible condensation” (PLOS Pathogens, 2023)",
  "molecules": {"B1": {"name": "ScCdc31-6His (Saccharomyces cerevisiae centrin Cdc31) (natural protein, UniProt P06704 1-161, looked up)", "chain": "MSKNRSSLQSGPLNSELLEEQKQEIYEAFSLFDMNNDGFLDYHELKVAMKALGFELPKREILDLIDEYDSEGRHLMKYDDFYIVMGEKILKRDPLDEIKRAFQLFDDDHTGKISIKNLRRVAKELGETLTDEELRAMIEEFDLDGDGEINENEFIAICTDS", "notes": "Saccharomyces cerevisiae centrin Cdc31, 161 aa, 19 kDa; source: recombinant, pET-28 construct from a synthetic codon optimized gene"}, "B2": {"name": "HsCen2-6His (human centrin 2, 6His-tagged) (natural protein, UniProt P41208 1-172, looked up)", "chain": "MASNFKKANMASSSQRKRMSPKPELTEEQKQEIREAFDLFDADGTGTIDVKELKVAMRALGFEPKKEEIKKMISEIDKEGTGKMNFGDFLTVMTQKMSEKDTKEEILKAFKLFDDDETGKISFKNLKRVAKELGENLTDEELQEMIDEADRDGDGEVSEQEFLRIMKKTSLY", "notes": "human centrin 2 (HsCen2); mass spectrometry confirmed full length except for cleavage of methionine 1; source: E. coli BL21-CodonPlus (DE3), pET-28, purified (Ni-NTA); not shown: 6His, C-terminal, kept"}},
  "key": {"[1]": {"target": "PfCen1-6His (P. falciparum centrin 1, 6His-tagged) (P. falciparum)", "experiment": "turbidity (light scattering); range of PfCen1-6His concentrations to find the saturation concentration; CaCl2 to 2 mM; 50 mM BisTris pH 7.1, 37°C, no salt or PEG"}, "[2]": {"target": "PfCen1-6His (P. falciparum centrin 1, 6His-tagged) (P. falciparum)", "experiment": "turbidity (light scattering); PfCen1-6His and PfCen3-6His at individually subcritical concentrations, alone with BSA to a total protein concentration of >20 μM or as a mixture; calcium, then EDTA; 50 mM BisTris pH 7.1, 37°C"}, "[3]": {"target": "PfCen3-6His (P. falciparum centrin 3, 6His-tagged) (P. falciparum)", "experiment": "turbidity (light scattering); PfCen1-6His and PfCen3-6His at individually subcritical concentrations, alone with BSA to a total protein concentration of >20 μM or as a mixture; calcium, then EDTA; 50 mM BisTris pH 7.1, 37°C"}, "[4]": {"target": "the molecule itself", "experiment": "light microscopy of droplets in purified protein solutions; self-assembly into droplets; concentrated recombinant centrin (100-200 μM), 2 mM CaCl2 added, then 10 mM EDTA; 50 mM BisTris pH 7.1, 37°C"}},
  "data": [
    {"molecule": "PfCen1-6His (P. falciparum centrin 1, 6His-tagged) (natural protein)", "values": [
      {"measurement": "csat (critical saturation concentration)", "setting": "[1]", "result": "10 to 15", "unit": "µM"},
      {"measurement": "csat (saturation concentration)", "setting": "[2]", "result": 10, "unit": "µM"}
    ]},
    {"molecule": "PfCen3-6His (P. falciparum centrin 3, 6His-tagged) (natural protein)", "values": [
      {"measurement": "csat (saturation concentration)", "setting": "[3]", "result": 10, "unit": "µM"}
    ]},
    {"molecule": "B1", "values": [
      {"measurement": "binding result", "setting": "[4]", "result": "binds"}
    ]},
    {"molecule": "B2", "values": [
      {"measurement": "binding result", "setting": "[4]", "result": "binds"}
    ]}
  ]
}
